Measurements reported in publication PMC5829824.

Target: mCherry-tagged human vimentin (human) (UniProt P08670)
Assay: co-IP; mCherry-vimentin or RFP from bEnd.3 cell extracts immunoprecipitated with RFP-trap beads, then incubated with purified InlF-His6; eluates blotted with anti-His6 and anti-RFP; densitometry

Chain of mCherry-tagged human vimentin (human) (P08670 whole entry): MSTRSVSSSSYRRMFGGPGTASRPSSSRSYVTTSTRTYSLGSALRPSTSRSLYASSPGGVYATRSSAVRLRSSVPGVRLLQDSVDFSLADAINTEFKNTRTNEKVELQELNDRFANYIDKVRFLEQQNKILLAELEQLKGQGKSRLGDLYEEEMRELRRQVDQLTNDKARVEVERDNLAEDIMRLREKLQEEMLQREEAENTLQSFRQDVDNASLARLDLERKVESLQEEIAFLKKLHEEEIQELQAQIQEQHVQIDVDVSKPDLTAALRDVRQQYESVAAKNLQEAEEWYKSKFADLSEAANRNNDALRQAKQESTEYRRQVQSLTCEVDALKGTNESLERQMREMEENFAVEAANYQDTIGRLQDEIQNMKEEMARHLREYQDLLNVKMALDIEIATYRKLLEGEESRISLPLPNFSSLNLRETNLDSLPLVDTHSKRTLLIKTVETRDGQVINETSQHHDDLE

## InlF-His6 (Listeria monocytogenes internalin family surface protein InlF, His6-tagged) (from UniProt O33930 1-821) (natural protein)
  ratio of anti-His to anti-RFP signals (densitometry), fold over the RFP control: > 5 fold
